From patent US20100222559, “NUCLEIC ACID MOLECULE CAPABLE OF BINDING TO RABBIT-DERIVED lgG ANTIBODY” (published 2010)

B1: SEQ ID NO: 5 RNA aptamer (ssRNA)
RNA: GGGAGAAUUCCGACCAGAAGUUCGAUACGCCGUGGGGUGACGUUGGCUACCUUUCCUCUCUCCUCCUUCUUCU
B2: SEQ ID NO: 1 RNA aptamer (ssRNA)
RNA: GGGAGAAUUCCGACCAGAAGAAGUUCGAUACGCCGUGGGGUGACGUUGGCUGCCCUUUCCUCUCUCCUCCUUCUUCU
B3: SEQ ID NO: 3 RNA aptamer (ssRNA)
RNA: GGGAGAAUUCCGACCAGAAGCAAAUUGCCGGGCCUUGGAAGCCAAGUCGCUUUCCUCUCUCCUCCUUCUUCU
B4: SEQ ID NO: 2 RNA aptamer (ssRNA)
RNA: GGGAGAAUUCCGACCAGAAGUUUUUAAACCGCGCCUUGGAAGCGUACGUUGGCCUUUCCUCUCUCCUCCUUCUUCU
B5: SEQ ID NO: 4 RNA aptamer (ssRNA)
RNA: GGGAGAAUUCCGACCAGAAGCGCAAGCCGGCCCUUGGAAGGCUAGUCGGUCUUUCCUCUCUCCUCCUUCUUCU

Assays:
goat IgG (Capra hircus) = assay: filter; conditions: specificity control, 100 nM protein
[1] = system: rabbit anti-mouse IgG antibody (Oryctolagus cuniculus); assay: filter; conditions: 20 nM RNA, 100 nM protein, 5 mM MgCl2, RT
[2] = system: rabbit anti-GST antibody (IgG) (Oryctolagus cuniculus); assay: filter; conditions: 20 nM RNA, 100 nM protein
mouse IgG (Mus musculus) = assay: filter; conditions: specificity control, 100 nM protein
[3] = system: rabbit anti-GST IgG + glutathione-S-transferase (mixture) (Oryctolagus cuniculus / Schistosoma japonicum); assay: filter; conditions: 100 nM GST + 100 nM anti-GST IgG
[4] = system: rabbit anti-mouse IgG antibody (Oryctolagus cuniculus); assay: SPR; conditions: RNA with 5' A24 extension captured on biotin-dT24 SA chip; 25 C
[5] = target: glutathione-S-transferase (GST) (Schistosoma japonicum, UniProt P08515 P08515:2-218); assay: filter; specificity control, 100 nM protein; conditions: tags: prepared in laboratory from GE vector; chain copies: 2; label: 32P (filter assay)
Method: (§1) The RNAs (20 nM) set forth in SEQ ID NOS: 1 to 5, and the materials (100 nM each) shown in “Material List” below, were incubated in a binding buffer, and then, their binding strength was measured in accordance with the methods described in “Radiolabeling” and “Binding Experiment” below.
(§2) The resulting mixture was introduced onto a filter (trade name: MF-membrane filter, manufactured by Millipore) by way of suctioning it with a suction device, and then, the filter was washed with a binding buffer that was 20 times the volume of the mixture. The radiation intensity of the filter obtained in this manner was measured with a Bio-Imaging Analyzer BAS-2500 (using, as an imaging plate, BAS-MS2040 manufactured by Fuji Film Co., Ltd.) manufactured by Fuji Film Co., Ltd. The radiation intensity was visualized with Image Reader (Fuji Film Co., Ltd.), and the obtained data were converted into numerical values with Image Gauge ver. 4.0 (Fuji Film Co., Ltd.).

bovine serum albumin = bovine serum albumin (Bos taurus, UniProt P02769 P02769:25-607); assay: filter; specificity control, 100 nM protein; buffer only 0.3%; conditions: tags: SIGMA; label: 32P (filter assay)
Method: as §1, §2

Sequence of glutathione-S-transferase (GST) (P08515 2-218, one chain of several): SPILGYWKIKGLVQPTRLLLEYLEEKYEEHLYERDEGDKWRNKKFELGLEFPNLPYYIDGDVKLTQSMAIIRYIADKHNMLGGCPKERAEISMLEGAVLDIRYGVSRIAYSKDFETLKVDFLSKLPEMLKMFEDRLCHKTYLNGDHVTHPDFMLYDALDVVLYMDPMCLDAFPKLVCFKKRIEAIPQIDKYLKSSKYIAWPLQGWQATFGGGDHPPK
Sequence of bovine serum albumin (P02769 25-607, one chain of several): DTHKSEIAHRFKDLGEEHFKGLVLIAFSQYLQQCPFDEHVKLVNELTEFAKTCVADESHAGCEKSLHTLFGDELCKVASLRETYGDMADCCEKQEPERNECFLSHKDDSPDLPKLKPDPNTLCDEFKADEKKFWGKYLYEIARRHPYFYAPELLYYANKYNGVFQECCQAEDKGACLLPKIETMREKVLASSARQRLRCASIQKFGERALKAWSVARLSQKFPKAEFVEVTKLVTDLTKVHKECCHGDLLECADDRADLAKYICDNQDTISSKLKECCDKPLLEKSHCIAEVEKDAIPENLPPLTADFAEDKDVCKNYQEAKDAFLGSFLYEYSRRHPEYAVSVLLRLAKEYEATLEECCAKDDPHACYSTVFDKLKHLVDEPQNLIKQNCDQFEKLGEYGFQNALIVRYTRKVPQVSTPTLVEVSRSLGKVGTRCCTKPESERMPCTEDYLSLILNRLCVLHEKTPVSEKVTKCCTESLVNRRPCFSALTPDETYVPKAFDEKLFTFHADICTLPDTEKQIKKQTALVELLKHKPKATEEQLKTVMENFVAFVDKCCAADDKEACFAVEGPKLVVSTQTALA

Molecule	binding signal (goat IgG (Capra hircus)) [% bound]	binding signal [1] [% bound]	binding signal ([2]; buffer only 0.3%) [% bound]	binding signal (mouse IgG (Mus musculus)) [% bound]	binding signal [3] [% bound]	Kd [4] [nM]	binding signal [5] [% bound]	binding signal (bovine serum albumin) [% bound]	other results
GGGAGAAUUCCGACCAGAAGCAAAUUGCCGGGCCUUGGAAGCCAAGUCGCUUUCCUCUCUCCUCCUUCUUCU [SEQ ID NO: 3 RNA aptamer]	1	20.9	20.9	1.8	14.4	118	–	–	–
GGGAGAAUUCCGACCAGAAGUUUUUAAACCGCGCCUUGGAAGCGUACGUUGGCCUUUCCUCUCUCCUCCUUCUUCU [SEQ ID NO: 2 RNA aptamer]	0.7	24.6	–	0.5	14.2	51.5	–	–	binding signal ([2]; buffer only 0.4%): 24.6 % bound
GGGAGAAUUCCGACCAGAAGCGCAAGCCGGCCCUUGGAAGGCUAGUCGGUCUUUCCUCUCUCCUCCUUCUUCU [SEQ ID NO: 4 RNA aptamer]	0.3	23.4	23.4	0.5	20.7	103	–	–	–
GGGAGAAUUCCGACCAGAAGAAGUUCGAUACGCCGUGGGGUGACGUUGGCUGCCCUUUCCUCUCUCCUCCUUCUUCU [SEQ ID NO: 1 RNA aptamer]	0.8	–	–	0.6	13.6	0.013	–	–	binding signal ([1]; 50 mM HEPES pH 7.4, 150 mM NaCl): 19.1 % bound; binding signal ([2]; buffer only 0.2%): 19.1 % bound
GGGAGAAUUCCGACCAGAAGUUCGAUACGCCGUGGGGUGACGUUGGCUACCUUUCCUCUCUCCUCCUUCUUCU [SEQ ID NO: 5 RNA aptamer]	0.3	58.1	58.1	0.5	48.8	0.0147	–	–	–
B1	–	–	–	–	–	–	0.6	0.9	–
B2	–	–	–	–	–	–	0.7	–	–
B3	–	–	–	–	–	–	0.6	1	–
B4	–	–	–	–	–	–	0.6	–	–
B5	–	–	–	–	–	–	0.4	0.4	–
